# Measurements taken from PMC3677877 (PLoS ONE, 2013).
# “And” between values parts separate entries of the source, which are not always exact repeats. Equal entries are not always repeated.
# B1: recombinant Kgp propeptide (thrombin-cleaved; used as DTT-stabilised monomer in the inhibition assays) (domain or fragment)
# chain: QSAKIKLDAPTTRTTCTNNSFKQFDASFSFNEVELTKVETKGGTFASVSIPGAFPTGEVGSPEVPAVRKLIAVPVGATPVVRVKSFTEQVYSLNQYGSEKLMPHQPSMSKSDDPEKVPFVYNAAAYARKGFVGQELTQVEMLGTMRGVRIAALTINPVQYDVVANQLKVRNNIEIEVSFQGADEVATQRLYDASFSPYFETAYKQLFNR
# Experiments:
# [1] = molecular target: rKgp: mature recombinant Kgp catalytic domain with the ABM1 motif (Gly681-Ala710) deleted (Porphyromonas gingivalis W50)
# [2] = molecular target: rKgp: mature recombinant Kgp catalytic domain with the ABM1 motif (Gly681-Ala710) deleted (Porphyromonas gingivalis W50); assay: enzyme inhibition kinetics
# [3] = molecular target: the molecule itself; assay: SEC
molecule,measurement,setting,value
iodoacetylated Kgp propeptide monomer (from UniProt Q51817 20-228) (domain or fragment),"inhibition of rKgp by the iodoacetylated monomer (100 mg/L), substrate DQ-BSA",[1],28 % inhibition
recombinant Kgp propeptide (thrombin-cleaved; used as DTT-stabilised monomer in the inhibition assays) (from UniProt Q51817 20-228) (domain or fragment),Ki,[2],2010 nM and 2040 nM
B1,stoichiometry N,[3],2
